Publication PMC5146963, “The mechanism of a formaldehyde-sensing transcriptional regulator” (Scientific Reports, 2016)

Target: the molecule itself
Assay: SEC; calibrated size exclusion chromatography column; elution volume compared with standards

| Protein | stoichiometry N |
| --- | --- |
| Escherichia coli FrmR (EcFrmR) (natural protein, Escherichia coli K-12, UniProt P0AAP3 2-91, looked up, FrmR, transcriptional repressor of the frmRAB operon, E. coli K-12; last residue Lys91; frmR amplified from E. coli K12 genomic DNA and ligated into pET22b at NdeI and NcoI; no tag is mentioned and the measured mass fits the untagged protein without Met1; source: E. coli expression strains (JRG6782, 6783 and 6784), frmR in pET22b, purified (Heparin-HP, HiLoad Superdex 200)) PSTPEEKKKVLTRVRRIRGQIDALERSLEGDAECRAILQQIAAVRGAANGLMAEVLESHIRETFDRNDCYSREVSQSVDDTIELVRAYLK | 4 |
| EcFrmR(C35A) (natural protein, Escherichia coli K-12, UniProt P0AAP3 2-91, looked up, FrmR, E. coli K-12, with C35A; Mutation made by overlap PCR or Quikchange; also called C35A variant; source: E. coli expression strains (JRG6782, 6783 and 6784), purified (Heparin-HP, HiLoad Superdex 200)) PSTPEEKKKVLTRVRRIRGQIDALERSLEGDAEARAILQQIAAVRGAANGLMAEVLESHIRETFDRNDCYSREVSQSVDDTIELVRAYLK | 4 |
| EcFrmR(P2A) (natural protein, Escherichia coli K-12, UniProt P0AAP3 2-91, looked up, FrmR, E. coli K-12, with P2A; Mutation made by overlap PCR or Quikchange; also called P2A variant; source: E. coli expression strains (JRG6782, 6783 and 6784), purified (Heparin-HP, HiLoad Superdex 200)) ASTPEEKKKVLTRVRRIRGQIDALERSLEGDAECRAILQQIAAVRGAANGLMAEVLESHIRETFDRNDCYSREVSQSVDDTIELVRAYLK | 4 |
